{"source": "patent US20210388087A1", "about": "(Chugai, published 2021)", "binders": {"B1": {"name": "CE115HA000 H35S one-arm antibody (antibody, human IgG1, kappa, L234A L235A, N297A, name in Kabat numbering)", "heavy": "QVQLVESGGGVVQPGRSLRLSCAASGFTFSNAWMSWVRQAPGKGLEWVAQIKAKSNNYATYYAESVKGRFTISRDDSKNSLYLQMNSLKTEDTAVYYCRYVHYGAYYGVDAWGQGTTVTVSSASTKGPSVFPLAPSSKSTSGGTAALGCLVKDYFPEPVTVSWNSGALTSGVHTFPAVLQSSGLYSLSSVVTVPSSSLGTQTYICNVNHKPSNTKVDKKVEPKSCDKTHTCPPCPAPEAAGGPSVFLFPPKPKDTLMISRTPEVTCVVVDVSHEDPEVKFNWYVDGVEVHNAKTKPREEQYASTYRVVSVLTVLHQDWLNGKEYKCKVSNKALPAPIEKTISKAKGQPREPQVYTLPPSRCELTKNQVSLSCAVKGFYPSDIAVEWESNGQPENNYKTTPPVLDSDGSFFLVSKLTVDKSRWQQGNVFSCSVMHEALHNHYTQKSLSLSPDYKDDDDK", "chain": "EPKSSDKTHTCPPCPAPELLGGPSVFLFPPKPKDTLMISRTPEVTCVVVDVSHEDPEVKFNWYVDGVEVHNAKTKPREEQYNSTYRVVSVLTVLHQDWLNGKEYKCKVSNKALPAPIEKTISKAKGQPREPQVCTLPPSRDELTKNQVSLWCLVKGFYPSDIAVEWESNGQPENNYKTTPPVLDSDGSFFLYSKLTVDKSRWQQGNVFSCSVMHEALHNRYTQKSLSLSP", "light": "DIVMTQSPLSLPVTPGEPASISCRSSQSLVHSNRNTYLHWYQQKPGQAPRLLIYKVSNRFSGVPDRFSGSGSGTDFTLKISRVEAEDVGVYYCGQGTQVPYTFGQGTKLEIKRTVAAPSVFIFPPSDEQLKSGTASVVCLLNNFYPREAKVQWKVDNALQSGNSQESVTEQDSKDSTYSLSSTLTLSKADYEKHKVYACEVTHQGLSSPVTKSFNRGEC"}, "B2": {"name": "CE115HA000 K52F one-arm antibody (antibody, human IgG1, kappa, L234A L235A, N297A, name in Kabat numbering)", "heavy": "B1 heavy with S35H, K52F", "chain": "B1 chain", "light": "B1 light"}, "B3": {"name": "CE115HA000 H35W one-arm antibody (antibody, human IgG1, kappa, L234A L235A, N297A, name in Kabat numbering)", "heavy": "B1 heavy with S35W", "chain": "B1 chain", "light": "B1 light"}, "B4": {"name": "CE115HA000 K43E one-arm antibody (antibody, human IgG1, kappa, L234A L235A, N297A, name in Kabat numbering)", "heavy": "B1 heavy with S35H, K43E", "chain": "B1 chain", "light": "B1 light"}, "B5": {"name": "CE115HA000 K52N one-arm antibody (antibody, human IgG1, kappa, L234A L235A, N297A, name in Kabat numbering)", "heavy": "B1 heavy with S35H, K52N", "chain": "B1 chain", "light": "B1 light"}, "B6": {"name": "CE115HA000 H96Q one-arm antibody (antibody, human IgG1, kappa, L234A L235A, N297A, name in Kabat numbering)", "heavy": "B1 heavy with S35H, H102Q", "chain": "B1 chain", "light": "B1 light"}, "B7": {"name": "CE115HA000 H96S one-arm antibody (antibody, human IgG1, kappa, L234A L235A, N297A, name in Kabat numbering)", "heavy": "B1 heavy with S35H, H102S", "chain": "B1 chain", "light": "B1 light"}, "B8": {"name": "CE115HA000 H96Y one-arm antibody (antibody, human IgG1, kappa, L234A L235A, N297A, name in Kabat numbering)", "heavy": "B1 heavy with S35H, H102Y", "chain": "B1 chain", "light": "B1 light"}, "B9": {"name": "CE115HA000 K52H one-arm antibody (antibody, human IgG1, kappa, L234A L235A, N297A, name in Kabat numbering)", "heavy": "B1 heavy with S35H, K52H", "chain": "B1 chain", "light": "B1 light"}, "B10": {"name": "CE115HA000 H96K one-arm antibody (antibody, human IgG1, kappa, L234A L235A, N297A, name in Kabat numbering)", "heavy": "B1 heavy with S35H, H102K", "chain": "B1 chain", "light": "B1 light"}, "B11": {"name": "CE115HA000 I51D one-arm antibody (antibody, human IgG1, kappa, L234A L235A, N297A, name in Kabat numbering)", "heavy": "B1 heavy with S35H, I51D", "chain": "B1 chain", "light": "B1 light"}, "B12": {"name": "CE115HA000 K43Q one-arm antibody (antibody, human IgG1, kappa, L234A L235A, N297A, name in Kabat numbering)", "heavy": "B1 heavy with S35H, K43Q", "chain": "B1 chain", "light": "B1 light"}, "B13": {"name": "CE115HA000 H96P one-arm antibody (antibody, human IgG1, kappa, L234A L235A, N297A, name in Kabat numbering)", "heavy": "B1 heavy with S35H, H102P", "chain": "B1 chain", "light": "B1 light"}, "B14": {"name": "CE115HA000 K52I one-arm antibody (antibody, human IgG1, kappa, L234A L235A, N297A, name in Kabat numbering)", "heavy": "B1 heavy with S35H, K52I", "chain": "B1 chain", "light": "B1 light"}, "B15": {"name": "CE115HA000 H35T one-arm antibody (antibody, human IgG1, kappa, L234A L235A, N297A, name in Kabat numbering)", "heavy": "B1 heavy with S35T", "chain": "B1 chain", "light": "B1 light"}, "B16": {"name": "CE115HA000 H35Y one-arm antibody (antibody, human IgG1, kappa, L234A L235A, N297A, name in Kabat numbering)", "heavy": "B1 heavy with S35Y", "chain": "B1 chain", "light": "B1 light"}, "B17": {"name": "CE115HA000 H96G one-arm antibody (antibody, human IgG1, kappa, L234A L235A, N297A, name in Kabat numbering)", "heavy": "B1 heavy with S35H, H102G", "chain": "B1 chain", "light": "B1 light"}, "B18": {"name": "CE115HA000 H96L one-arm antibody (antibody, human IgG1, kappa, L234A L235A, N297A, name in Kabat numbering)", "heavy": "B1 heavy with S35H, H102L", "chain": "B1 chain", "light": "B1 light"}, "B19": {"name": "CE115HA000 K52E one-arm antibody (antibody, human IgG1, kappa, L234A L235A, N297A, name in Kabat numbering)", "heavy": "B1 heavy with S35H, K52E", "chain": "B1 chain", "light": "B1 light"}, "B20": {"name": "CE115HA000 I51E one-arm antibody (antibody, human IgG1, kappa, L234A L235A, N297A, name in Kabat numbering)", "heavy": "B1 heavy with S35H, I51E", "chain": "B1 chain", "light": "B1 light"}, "B21": {"name": "CE115HA000 H35V one-arm antibody (antibody, human IgG1, kappa, L234A L235A, N297A, name in Kabat numbering)", "heavy": "B1 heavy with S35V", "chain": "B1 chain", "light": "B1 light"}, "B22": {"name": "CE115HA000 K52D one-arm antibody (antibody, human IgG1, kappa, L234A L235A, N297A, name in Kabat numbering)", "heavy": "B1 heavy with S35H, K52D", "chain": "B1 chain", "light": "B1 light"}, "B23": {"name": "CE115HA000 H96R one-arm antibody (antibody, human IgG1, kappa, L234A L235A, N297A, name in Kabat numbering)", "heavy": "B1 heavy with S35H, H102R", "chain": "B1 chain", "light": "B1 light"}}, "note": "Substitutions are numbered along the chain they refer to. Names may count otherwise."}
{"target": "T1, CD3 epsilon homodimer protein (UniProt P07766 23-126)", "T1 construct": "immobilized on Sensor chip CM4 by amine coupling; also called CD3 (CD3 epsilon)", "T1 sequence (P07766 23-126)": "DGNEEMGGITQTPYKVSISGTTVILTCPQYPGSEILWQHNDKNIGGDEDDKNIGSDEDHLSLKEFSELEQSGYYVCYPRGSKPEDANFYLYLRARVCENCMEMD", "experiment": "SPR (Biacore T200), CD3 epsilon homodimer on CM4 chip, one-arm antibody as analyte, 25 C;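 also: homodimer attached to the sensor surface via amine coupling, HBS-EP+ used as running buffer during binding runs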", "procedure": "An appropriate amount of CD3 epsilon homodimer protein was immobilized onto Sensor chip CM4 (GE Healthcare Japan Corp.) by the amine coupling method. Then, the antibody having an appropriate concentration was injected thereto as an analyte and allowed to interact with the CD3 epsilon homodimer protein on the sensor chip. Then, the sensor chip was regenerated by the injection of 10 mmol/L glycine-HCl (pH 1.5). The assay was conducted at 25 degrees C., and HBS-EP+(GE Healthcare Japan Corp.) was used as a running buffer. […] Each parameter was calculated using Biacore T200 Evaluation Software (GE Healthcare Japan Corp.)."}
{"binder": "B1", "ratio of amounts bound (altered form / CE115HA000)": 0.23}
{"binder": "B2", "ratio of amounts bound (altered form / CE115HA000)": 0.17}
{"binder": "B3", "ratio of amounts bound (altered form / CE115HA000)": 0.22}
{"binder": "B4", "ratio of amounts bound (altered form / CE115HA000)": 0.9}
{"binder": "B5", "ratio of amounts bound (altered form / CE115HA000)": 0.34}
{"binder": "B6", "ratio of amounts bound (altered form / CE115HA000)": 0.42}
{"binder": "B7", "ratio of amounts bound (altered form / CE115HA000)": 0.44}
{"binder": "B8", "ratio of amounts bound (altered form / CE115HA000)": 0.17}
{"binder": "B9", "ratio of amounts bound (altered form / CE115HA000)": 0.22}
{"binder": "B10", "ratio of amounts bound (altered form / CE115HA000)": 0.38}
{"binder": "B11", "ratio of amounts bound (altered form / CE115HA000)": 0.29}
{"binder": "B12", "ratio of amounts bound (altered form / CE115HA000)": 0.99}
{"binder": "B13", "ratio of amounts bound (altered form / CE115HA000)": 0.12}
{"binder": "B14", "ratio of amounts bound (altered form / CE115HA000)": 0.33}
{"binder": "B15", "ratio of amounts bound (altered form / CE115HA000)": 0.26}
{"binder": "B16", "ratio of amounts bound (altered form / CE115HA000)": 0.16}
{"binder": "B17", "ratio of amounts bound (altered form / CE115HA000)": 0.43}
{"binder": "B18", "ratio of amounts bound (altered form / CE115HA000)": 0.14}
{"binder": "B19", "ratio of amounts bound (altered form / CE115HA000)": 0.26}
{"binder": "B20", "ratio of amounts bound (altered form / CE115HA000)": 0.55}
{"binder": "B21", "ratio of amounts bound (altered form / CE115HA000)": 0.22}
{"binder": "B22", "ratio of amounts bound (altered form / CE115HA000)": 0.25}
{"binder": "B23", "ratio of amounts bound (altered form / CE115HA000)": 0.46}
